We go through 3 substances from patent US20180002383A1.

In experiment [1] the target is human GLUT-1 glucose transporter, endogenous on cells (the 'HTLV receptor' on HeLa, 293T, Jurkat cells and human erythrocytes) (human) (UniProt P11166). Kind of experiment: cell-based or functional assay.
Experiment [2] has the same target.

Chain of human GLUT-1 glucose transporter, endogenous on cells (the 'HTLV receptor' on HeLa, 293T, Jurkat cells and human erythrocytes) (human) (P11166 whole entry): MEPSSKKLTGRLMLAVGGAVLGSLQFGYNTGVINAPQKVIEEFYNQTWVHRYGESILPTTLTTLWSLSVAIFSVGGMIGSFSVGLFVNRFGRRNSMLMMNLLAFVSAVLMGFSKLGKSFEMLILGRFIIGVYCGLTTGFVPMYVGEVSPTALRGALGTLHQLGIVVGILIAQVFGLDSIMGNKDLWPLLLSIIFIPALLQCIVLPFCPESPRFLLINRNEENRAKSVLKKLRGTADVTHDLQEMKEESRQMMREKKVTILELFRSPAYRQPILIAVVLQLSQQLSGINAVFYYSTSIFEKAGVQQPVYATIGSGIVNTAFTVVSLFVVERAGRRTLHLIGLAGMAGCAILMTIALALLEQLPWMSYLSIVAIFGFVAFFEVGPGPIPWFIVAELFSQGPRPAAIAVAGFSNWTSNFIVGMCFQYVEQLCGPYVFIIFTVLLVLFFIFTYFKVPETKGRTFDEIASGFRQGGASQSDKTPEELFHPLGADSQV

On to “H183FEnv, non-syncytial chimeric envelope with the N-terminal 183 amino acids of the HTLV-1 receptor”, for which the Lactate accumulation in culture supernatant in experiment [1] came to 3 fold lower.

In turn, “HTLV-1 RBD (H1RBD), first 215 residues of HTLV-1 SU fused to a C-terminal rabbit IgG Fc tag (rFc) (Fc fusion)” returned a fold increase of binding after overnight culture without glucose in experiment [2] of 2 fold. Also, in experiment [1], the 2-deoxyglucose uptake (fold decrease) stood at 4 and the Lactate accumulation in culture supernatant was 3 fold lower.

Take “HTLV-2 RBD (H2RBD), first 178 residues of HTLV2-SU fused to a C-terminal rabbit IgG Fc tag (rFc) (from UniProt P01868 98-324) (Fc fusion)”: in experiment [1], the 2-deoxyglucose uptake (fold decrease) worked out at 4 and the HTLV titers (infection of 293T cells by MLV particles pseudotyped with HTLV-2 envelope) is 2 logs.
